The data set has as its target T1, TgGRA1 (Toxoplasma gondii, UniProt P13403 25-190).
T1 sequence: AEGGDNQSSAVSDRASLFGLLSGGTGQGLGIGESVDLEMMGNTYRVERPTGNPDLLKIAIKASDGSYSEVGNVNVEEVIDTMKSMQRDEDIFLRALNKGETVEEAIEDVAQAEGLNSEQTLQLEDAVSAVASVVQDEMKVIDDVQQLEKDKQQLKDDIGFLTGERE
Nature of the data set: EMSA; 2 mg/mL protein. The note with it: protein: recombinant; tags: His; label: biotin (TdT labeling); four-way junction of 4 strands.

The record followed here is PMC4219823, “A Nuclear Factor of High Mobility Group Box Protein in Toxoplasma gondii”.

B1: 4H cruciform DNA (4H-a/4H-b/4H-c/4H-d) (structured_DNA)
DNA 1: AACAGTAGCTTATTCGAGCTCGCGCCCTATCACGACGACTA
DNA 2: GTAGTCGTCGTGATAGGTGCAGGGGTTATAGGG
DNA 3: CCCTATAACCCCTGCATTGAATTCCAGTCTGATAA
DNA 4: TTTATCAGACTGGAATTCAAGCGCGAGCTCGAATAAGCTACTGT
For B1, the binding result is on record as “no binding”.
